In article PMC2789664:

Key:
GAPDH C149A = GAPDH C149A (Homo sapiens, UniProt P04406 1-335, C152A); assay: EMSA
GAPDH D32A = GAPDH D32A (Homo sapiens, UniProt P04406 1-335, D35A); assay: EMSA
GAPDH D32A, sequence (P04406 whole entry D35A): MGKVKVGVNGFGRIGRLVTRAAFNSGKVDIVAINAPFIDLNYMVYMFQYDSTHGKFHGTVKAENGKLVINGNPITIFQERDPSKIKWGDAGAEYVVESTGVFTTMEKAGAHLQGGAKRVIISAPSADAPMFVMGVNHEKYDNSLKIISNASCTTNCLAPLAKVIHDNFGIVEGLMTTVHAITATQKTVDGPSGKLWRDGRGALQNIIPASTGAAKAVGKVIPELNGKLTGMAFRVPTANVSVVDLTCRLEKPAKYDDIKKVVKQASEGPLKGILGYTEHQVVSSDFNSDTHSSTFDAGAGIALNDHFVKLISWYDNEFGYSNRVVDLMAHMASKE

GAPDH C149A, sequence (P04406 whole entry C152A): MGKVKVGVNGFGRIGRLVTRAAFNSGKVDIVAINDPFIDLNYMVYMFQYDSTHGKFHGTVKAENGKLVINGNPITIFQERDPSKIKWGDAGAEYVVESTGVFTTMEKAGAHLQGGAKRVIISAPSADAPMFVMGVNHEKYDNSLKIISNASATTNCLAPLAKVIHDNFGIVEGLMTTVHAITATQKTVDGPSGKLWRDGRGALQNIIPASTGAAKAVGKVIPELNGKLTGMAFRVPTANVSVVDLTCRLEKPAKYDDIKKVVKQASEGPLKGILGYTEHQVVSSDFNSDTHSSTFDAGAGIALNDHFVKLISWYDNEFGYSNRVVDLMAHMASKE

AGGGTTAGGGTTAGGGTT (ssDNA) [ss-(AGGGTT)3]
binding result (GAPDH C149A): no binding
binding result (GAPDH D32A): no binding
